The values below come from publication PMC5779224 (2017).

As usually defined, the Kd is the equilibrium constant for the complex coming apart.

Assay [1] addresses T1, AnkB 28–847 (MBD + partial AI-c) (human, UniProt Q01484-2 28-847).
T1 chain: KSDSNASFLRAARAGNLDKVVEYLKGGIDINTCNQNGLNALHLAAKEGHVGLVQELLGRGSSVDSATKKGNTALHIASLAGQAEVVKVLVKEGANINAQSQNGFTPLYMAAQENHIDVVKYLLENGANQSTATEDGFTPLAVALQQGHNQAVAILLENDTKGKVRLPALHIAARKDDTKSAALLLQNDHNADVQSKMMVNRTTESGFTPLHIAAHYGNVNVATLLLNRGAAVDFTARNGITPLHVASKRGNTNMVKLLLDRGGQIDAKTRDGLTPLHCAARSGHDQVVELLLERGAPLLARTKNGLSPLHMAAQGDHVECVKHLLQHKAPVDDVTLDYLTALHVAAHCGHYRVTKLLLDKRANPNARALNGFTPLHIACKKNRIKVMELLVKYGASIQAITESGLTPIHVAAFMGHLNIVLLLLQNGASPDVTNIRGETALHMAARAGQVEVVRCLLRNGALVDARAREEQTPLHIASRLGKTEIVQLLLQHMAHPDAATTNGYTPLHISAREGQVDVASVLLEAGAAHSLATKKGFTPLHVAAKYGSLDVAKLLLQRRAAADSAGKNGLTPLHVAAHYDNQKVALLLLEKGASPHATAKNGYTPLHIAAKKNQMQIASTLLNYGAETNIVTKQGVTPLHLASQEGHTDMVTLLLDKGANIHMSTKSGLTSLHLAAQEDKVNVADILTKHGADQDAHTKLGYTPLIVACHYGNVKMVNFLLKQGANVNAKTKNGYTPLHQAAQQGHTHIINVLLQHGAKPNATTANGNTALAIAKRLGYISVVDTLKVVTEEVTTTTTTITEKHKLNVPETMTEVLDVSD
Description: ITC. On the technique in general: Isothermal titration calorimetry measures the heat released or taken up as one component is titrated into another.

Assay [2] concerns the target T2, AnkB 28–965 (MBD + AI-c + AI-b) (human, UniProt Q01484-2 28-965).
T2 chain: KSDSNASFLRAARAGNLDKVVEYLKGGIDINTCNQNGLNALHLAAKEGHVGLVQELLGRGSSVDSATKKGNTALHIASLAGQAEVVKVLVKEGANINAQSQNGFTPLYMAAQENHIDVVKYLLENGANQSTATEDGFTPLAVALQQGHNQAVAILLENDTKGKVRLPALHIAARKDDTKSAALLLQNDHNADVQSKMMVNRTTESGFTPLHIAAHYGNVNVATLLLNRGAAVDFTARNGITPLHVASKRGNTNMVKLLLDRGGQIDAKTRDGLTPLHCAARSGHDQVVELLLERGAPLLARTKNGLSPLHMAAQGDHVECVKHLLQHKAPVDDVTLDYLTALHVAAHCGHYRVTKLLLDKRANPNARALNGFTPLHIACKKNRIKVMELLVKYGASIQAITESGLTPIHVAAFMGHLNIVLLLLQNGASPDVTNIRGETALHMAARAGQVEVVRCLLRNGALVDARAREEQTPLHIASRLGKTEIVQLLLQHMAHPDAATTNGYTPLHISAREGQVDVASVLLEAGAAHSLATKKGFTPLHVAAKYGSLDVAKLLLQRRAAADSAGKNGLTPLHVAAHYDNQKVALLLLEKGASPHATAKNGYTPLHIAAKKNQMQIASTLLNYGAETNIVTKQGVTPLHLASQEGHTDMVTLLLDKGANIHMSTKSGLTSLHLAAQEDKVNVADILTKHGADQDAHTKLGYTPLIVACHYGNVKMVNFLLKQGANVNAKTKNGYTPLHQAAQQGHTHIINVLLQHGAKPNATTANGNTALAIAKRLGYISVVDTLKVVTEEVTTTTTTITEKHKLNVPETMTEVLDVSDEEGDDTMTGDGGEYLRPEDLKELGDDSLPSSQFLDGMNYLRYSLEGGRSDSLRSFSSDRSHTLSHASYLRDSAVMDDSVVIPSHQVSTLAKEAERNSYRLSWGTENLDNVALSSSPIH
The experiment in a line: ITC.

B1: NF186 (aa 1187–1214) (domain or fragment)
chain: SDDSLVDYGEGGEGQFNEDGSFIGQYTV
In the case of B1, the equilibrium dissociation constant (Kd) in assay [1] was 0.49 µM; in assay [2] it was 23 µM.
